# From US20140147444A1 (published 2014)
# Substitutions are numbered along the chain they refer to. Names may count otherwise.
# T1: human OPGbp [143-317] (human, UniProt O14788 143-317)
# T1 construct: also called OPGL
# T1 sequence (looked up): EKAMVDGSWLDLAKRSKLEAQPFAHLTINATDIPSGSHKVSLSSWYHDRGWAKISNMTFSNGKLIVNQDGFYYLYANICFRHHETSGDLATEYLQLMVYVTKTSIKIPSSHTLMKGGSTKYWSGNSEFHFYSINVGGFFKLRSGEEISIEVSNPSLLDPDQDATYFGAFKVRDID
# B1: “AT” Fab variant D95A (heavy chain CDR3) (Fab, name in Kabat numbering, V domains shown)
# VH: QVQLVQSGAEVRKPGASVKVSCKASGYDFSNYAIHWVRQAPGQRLEWMGWINAGNGNTKFSQKFQGRITVTRDTAASTAYMELRSLRSEDTAVYYCARASSNMVRGIIIAYYFDYWGQGTLVTVSS
# VL: EIVMTQSPSSLSASVGDRVTITCRASQSISRYLNWYQLKPGKAPRLLIYGASSLQSGVPSRFSGSGSGAEFTLTISSLQPEDIATYYCQHTRAFGQGTKVEIKR
# B2: “AT” Fab variant I(100e)A (heavy chain CDR3) (Fab, name in Kabat numbering, V domains shown)
# VH: B1 VH with A99D, I109A
# VL: B1 VL
# B3: “AT” Fab variant R(100a)A (heavy chain CDR3) (Fab, name in Kabat numbering, V domains shown)
# VH: B1 VH with A99D, R105A
# VL: B1 VL
# B4: “AT” Fab variant Y(100h)A (heavy chain CDR3) (Fab, name in Kabat numbering, V domains shown)
# VH: B1 VH with A99D, Y112A
# VL: B1 VL
# B5: “AT” Fab variant Y(100g)A (heavy chain CDR3) (Fab, name in Kabat numbering, V domains shown)
# VH: B1 VH with A99D, Y111A
# VL: B1 VL
# B6: “AT” Fab variant S96A (heavy chain CDR3) (Fab, name in Kabat numbering, V domains shown)
# VH: B1 VH with A99D, S100A
# VL: B1 VL
# B7: “AT” Fab variant I(100c)A (heavy chain CDR3) (Fab, name in Kabat numbering, V domains shown)
# VH: B1 VH with A99D, I107A
# VL: B1 VL
# B8: “AT” Fab variant G(100b)A (heavy chain CDR3) (Fab, name in Kabat numbering, V domains shown)
# VH: B1 VH with A99D, G106A
# VL: B1 VL
# B9: “AT” Fab variant I(100d)A (heavy chain CDR3) (Fab, name in Kabat numbering, V domains shown)
# VH: B1 VH with A99D, I108A
# VL: B1 VL
# B10: “AT” Fab variant V100A (heavy chain CDR3) (Fab, name in Kabat numbering, V domains shown)
# VH: B1 VH with A99D, V104A
# VL: B1 VL
# B11: “AT” Fab variant N98A (heavy chain CDR3) (Fab, name in Kabat numbering, V domains shown)
# VH: B1 VH with A99D, N102A
# VL: B1 VL
# B12: “AT” Fab variant S97A (heavy chain CDR3) (Fab, name in Kabat numbering, V domains shown)
# VH: B1 VH with A99D, S101A
# VL: B1 VL
# B13: “AT” Fab variant M99A (heavy chain CDR3) (Fab, name in Kabat numbering, V domains shown)
# VH: B1 VH with A99D, M103A
# VL: B1 VL
# B14: human OPG [22-194]-Fc (Fc fusion, UniProt O00300 22-194, looked up, not shown: a dimerising Fc or GST)
# chain: ETFPPKYLHYDEETSHQLLCDKCPPGTYLKQHCTAKWKTVCAPCPDHYYTDSWHTSDECLYCSPVCKELQYVKQECNRTHNRVCECKEGRYLEIEFCLKHRSCPPGFGVVQAGTPERNTVCKRCPDGFFSNETSSKAPCRKHTNCSVFGLLLTQKGNATHDNICSGNSESTQK
# B15: “AT” antibody variant S97A (heavy chain CDR3) (antibody, name in Kabat numbering, V domains shown)
# VH: B1 VH with A99D, S101A
# VL: B1 VL
# notes: not shown: human IgG1 CH1, hinge, CH2 and CH3
# B16: “AT” antibody variant S97A, N98A (heavy chain CDR3) (antibody, name in Kabat numbering, V domains shown)
# VH: B1 VH with A99D, S101A, N102A
# VL: B1 VL
# notes: as for B15
# B17: “AT” antibody variant S96A, S97A, N98A (heavy chain CDR3) (antibody, name in Kabat numbering, V domains shown)
# VH: B1 VH with A99D, S100A, S101A, N102A
# VL: B1 VL
# notes: as for B15
# B18: “AT” antibody variant S96A (heavy chain CDR3) (antibody, name in Kabat numbering, V domains shown)
# VH: B1 VH with A99D, S100A
# VL: B1 VL
# notes: as for B15
# B19: “AT” antibody variant N98A (heavy chain CDR3) (antibody, name in Kabat numbering, V domains shown)
# VH: B1 VH with A99D, N102A
# VL: B1 VL
# notes: as for B15
# B20: “AT” antibody variant S96A, N98A (heavy chain CDR3) (antibody, name in Kabat numbering, V domains shown)
# VH: B1 VH with A99D, S100A, N102A
# VL: B1 VL
# notes: as for B15
# B21: “AT” antibody variant S96A, S97A (heavy chain CDR3) (antibody, name in Kabat numbering, V domains shown)
# VH: B1 VH with A99D, S100A, S101A
# VL: B1 VL
# notes: as for B15
# B22: “AT” antibody variant S97Y (heavy chain CDR3) (antibody, name in Kabat numbering, V domains shown)
# VH: B1 VH with A99D, S101Y
# VL: B1 VL
# notes: as for B15
# B23: “AT” antibody variant S97L (heavy chain CDR3) (antibody, name in Kabat numbering, V domains shown)
# VH: B1 VH with A99D, S101L
# VL: B1 VL
# notes: as for B15
# B24: “AT” antibody variant S97Q (heavy chain CDR3) (antibody, name in Kabat numbering, V domains shown)
# VH: B1 VH with A99D, S101Q
# VL: B1 VL
# notes: as for B15
# B25: “AT” antibody variant S97K (heavy chain CDR3) (antibody, name in Kabat numbering, V domains shown)
# VH: B1 VH with A99D, S101K
# VL: B1 VL
# notes: as for B15
# B26: “AT” antibody variant S97I (heavy chain CDR3) (antibody, name in Kabat numbering, V domains shown)
# VH: B1 VH with A99D, S101I
# VL: B1 VL
# notes: as for B15
# B27: “AT” antibody variant S97T (heavy chain CDR3) (antibody, name in Kabat numbering, V domains shown)
# VH: B1 VH with A99D, S101T
# VL: B1 VL
# notes: as for B15
# B28: “AT” antibody variant S97P (heavy chain CDR3) (antibody, name in Kabat numbering, V domains shown)
# VH: B1 VH with A99D, S101P
# VL: B1 VL
# notes: as for B15
# B29: “AT” antibody variant S97R (heavy chain CDR3) (antibody, name in Kabat numbering, V domains shown)
# VH: B1 VH with A99D, S101R
# VL: B1 VL
# notes: as for B15
# B30: “AT” antibody variant S97V (heavy chain CDR3) (antibody, name in Kabat numbering, V domains shown)
# VH: B1 VH with A99D, S101V
# VL: B1 VL
# notes: as for B15
# B31: “AT” antibody variant S97M (heavy chain CDR3) (antibody, name in Kabat numbering, V domains shown)
# VH: B1 VH with A99D, S101M
# VL: B1 VL
# notes: as for B15
# B32: “AT” antibody variant S97N (heavy chain CDR3) (antibody, name in Kabat numbering, V domains shown)
# VH: B1 VH with A99D, S101N
# VL: B1 VL
# notes: as for B15
# B33: “AT” antibody variant S97W (heavy chain CDR3) (antibody, name in Kabat numbering, V domains shown)
# VH: B1 VH with A99D, S101W
# VL: B1 VL
# notes: as for B15
# Target: T1, human OPGbp [143-317]
# Assay: SPR (BIAcore), immobilized OPGbp [143-317]
Binder,binding result,koff
B1,no binding,–
B2,–,0.0069 s⁻¹
B3,–,0.303 s⁻¹
B4,–,0.368 s⁻¹
B5,–,0.074 s⁻¹
B6,–,0.0072 s⁻¹
B7,–,0.53 s⁻¹
B8,–,0.657 s⁻¹
B9,–,0.622 s⁻¹
B10,–,0.261 s⁻¹
B11,–,0.012 s⁻¹
B12,–,0.0062 s⁻¹
B13,–,1.12 s⁻¹

# Target: T1, human OPGbp [143-317]
# Assay: cell-based or functional assay
row,Binder,"RAW cell assay, IC50, positive control"
1,B14,0.033 µg/mL

# Target: T1, human OPGbp [143-317]
# Assay: SPR (BIAcore), immobilized OPGbp [143-317]
# Remark: another data set of the same source
Binder,Kd,koff,kon,binding result
B15,2.9 nM,0.0015 s⁻¹,530000 M⁻¹ s⁻¹,–
B16,–,–,–,no binding
B17,–,–,–,no binding
B18,2.5 nM,0.00064 s⁻¹,260000 M⁻¹ s⁻¹,–
B19,0.67 nM,0.0009 s⁻¹,1.3e+06 M⁻¹ s⁻¹,–
B20,–,–,–,no binding
B21,8.9 nM,0.00284 s⁻¹,317000 M⁻¹ s⁻¹,–

# Target: T1, human OPGbp [143-317]
# Assay: SPR (BIAcore), immobilized OPGbp [143-317]
# Remark: another data set of the same source
Binder,binding result,Kd,koff,kon
B22,no binding,–,–,–
B23,–,0.92 nM,0.00069 s⁻¹,750000 M⁻¹ s⁻¹
B24,–,8.19 nM,0.00598 s⁻¹,730000 M⁻¹ s⁻¹
B25,–,0.4 nM,0.00578 s⁻¹,1.45e+07 M⁻¹ s⁻¹
B26,–,0.87 nM,0.0018 s⁻¹,2.1e+06 M⁻¹ s⁻¹
B27,–,2.51 nM,0.00116 s⁻¹,463000 M⁻¹ s⁻¹
B28,–,24.5 nM,0.0269 s⁻¹,1.1e+06 M⁻¹ s⁻¹
B29,–,28.9 nM,0.118 s⁻¹,4.09e+06 M⁻¹ s⁻¹
B30,–,1.18 nM,0.00358 s⁻¹,3.04e+06 M⁻¹ s⁻¹
B31,–,12.4 nM,0.029 s⁻¹,2.33e+06 M⁻¹ s⁻¹
B32,–,4.59 nM,0.00411 s⁻¹,895000 M⁻¹ s⁻¹
B33,no binding,–,–,–
